From publication PMC10165364, “Pathological variants in TOP3A cause distinct disorders of mitochondrial and nuclear genome stability”
Substitutions are numbered along the chain they refer to.

What was measured:
Details in all cases: protein: recombinant; tags: N-terminal TEV-cleavable 6xHis, cleaved; label: 5' 32P; single strand
TOP3A Ser810* = biological target: T1, TOP3A Ser810* (Homo sapiens, UniProt Q13472 16-809); test: EMSA; comparable to WT; 25 mM HEPES pH 7.5, 70 mM NaCl, 100 ug/ml BSA, 1 mM DTT, 10% glycerol; 10 fmol oligo, 0-250 fmol TOP3A in 20 ul; 37 C 15 min, then ice; 8% native PAGE in 0.5x TBE at 4 C
T1 sequence: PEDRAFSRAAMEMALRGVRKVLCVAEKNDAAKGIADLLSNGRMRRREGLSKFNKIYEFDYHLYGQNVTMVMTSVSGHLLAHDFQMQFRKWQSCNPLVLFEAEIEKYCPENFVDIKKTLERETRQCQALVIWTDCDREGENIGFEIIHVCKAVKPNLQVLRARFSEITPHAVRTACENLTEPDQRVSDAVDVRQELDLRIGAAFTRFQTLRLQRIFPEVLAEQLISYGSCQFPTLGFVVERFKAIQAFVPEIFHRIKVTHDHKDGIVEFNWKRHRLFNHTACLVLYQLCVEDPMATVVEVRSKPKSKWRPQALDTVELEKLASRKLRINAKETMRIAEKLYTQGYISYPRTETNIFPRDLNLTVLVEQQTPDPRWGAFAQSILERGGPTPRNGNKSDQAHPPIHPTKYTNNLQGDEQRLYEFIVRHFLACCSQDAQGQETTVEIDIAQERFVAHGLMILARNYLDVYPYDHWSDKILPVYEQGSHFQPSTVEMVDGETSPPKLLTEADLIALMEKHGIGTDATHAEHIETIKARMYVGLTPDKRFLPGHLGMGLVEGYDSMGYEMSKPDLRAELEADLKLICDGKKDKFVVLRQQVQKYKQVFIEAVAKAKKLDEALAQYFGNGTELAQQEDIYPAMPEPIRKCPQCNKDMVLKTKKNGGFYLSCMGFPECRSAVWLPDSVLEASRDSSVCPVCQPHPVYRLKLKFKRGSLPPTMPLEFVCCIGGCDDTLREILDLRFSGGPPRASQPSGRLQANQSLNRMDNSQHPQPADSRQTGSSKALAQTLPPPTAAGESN

TOP3A Met575Val = biological target: T2, TOP3A Met575Val (Homo sapiens, UniProt Q13472 16-934, M575V); test: EMSA; up to 250 fmol protein; 25 mM HEPES pH 7.5, 70 mM NaCl, 100 ug/ml BSA, 1 mM DTT, 10% glycerol; 10 fmol oligo, 0-250 fmol TOP3A in 20 ul; 37 C 15 min, then ice; 8% native PAGE in 0.5x TBE at 4 C
T2 sequence: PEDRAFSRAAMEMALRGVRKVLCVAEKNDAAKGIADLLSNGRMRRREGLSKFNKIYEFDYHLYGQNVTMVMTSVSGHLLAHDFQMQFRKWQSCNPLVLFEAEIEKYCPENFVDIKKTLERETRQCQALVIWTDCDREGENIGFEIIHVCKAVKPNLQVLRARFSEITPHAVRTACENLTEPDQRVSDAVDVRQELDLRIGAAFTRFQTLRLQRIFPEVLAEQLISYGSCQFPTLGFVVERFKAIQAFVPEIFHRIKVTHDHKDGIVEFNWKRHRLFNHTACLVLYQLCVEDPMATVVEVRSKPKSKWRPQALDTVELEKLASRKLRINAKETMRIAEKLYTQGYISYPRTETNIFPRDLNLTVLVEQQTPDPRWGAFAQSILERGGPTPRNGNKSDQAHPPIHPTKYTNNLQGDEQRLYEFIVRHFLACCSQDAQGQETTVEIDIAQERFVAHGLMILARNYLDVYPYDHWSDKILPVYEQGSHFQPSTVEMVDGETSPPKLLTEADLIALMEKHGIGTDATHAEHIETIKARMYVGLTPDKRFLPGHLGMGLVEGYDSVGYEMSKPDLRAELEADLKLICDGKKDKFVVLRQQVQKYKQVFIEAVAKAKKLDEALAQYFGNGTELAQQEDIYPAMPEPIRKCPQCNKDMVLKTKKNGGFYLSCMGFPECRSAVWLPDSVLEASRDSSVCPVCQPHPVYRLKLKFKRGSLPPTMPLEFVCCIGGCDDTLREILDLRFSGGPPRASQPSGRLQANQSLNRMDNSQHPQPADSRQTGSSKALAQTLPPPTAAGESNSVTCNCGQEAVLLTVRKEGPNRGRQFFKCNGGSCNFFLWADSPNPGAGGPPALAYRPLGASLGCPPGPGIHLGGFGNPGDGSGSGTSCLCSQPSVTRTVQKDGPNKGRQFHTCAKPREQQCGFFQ

TOP3A Leu37Val = biological target: T3, TOP3A Leu37Val (Homo sapiens, UniProt Q13472 16-934, L37V); test: as above
T3 sequence: T2 sequence with L22V, V560M

B1: EMSA substrate 80-mer (ssDNA)
DNA: ACCACATTAACAACATAAAACCCTCATTCACACGAGAAAACACCCTCATGTTCATACACCTATCCCCCATTCTCCTCCTA
binding result (TOP3A Ser810*): binds | binding result (TOP3A Met575Val): no binding | binding result (TOP3A Leu37Val): no binding
